Experimental data published in patent publication US20120093813A1.

Assays:
[1] = biological target: huN1-NRRHD Mutant 1463V/A (human) (UniProt P46531); assay: ELISA, relative to huN1-NRRHD
[2] = biological target: huN1-NRRHD Mutant 1457E/A (human) (UniProt P46531); assay: ELISA, relative to huN1-NRRHD
[3] = biological target: Notch1 chimeric antigen, Lin-A domain swapped with murine sequence (human; human with mouse Lin-A) (UniProt P46531); assay: ELISA, relative to huN1-NRRHD
[4] = biological target: huN1-NRRHD Mutant 1467Q/A (human) (UniProt P46531); assay: ELISA, relative to huN1-NRRHD
[5] = biological target: huN1-NRRHD Mutant 1462K/A (human) (UniProt P46531); assay: ELISA, relative to huN1-NRRHD
[6] = biological target: huN1-NRRHD Mutant 1466L/A (human) (UniProt P46531); assay: ELISA, relative to huN1-NRRHD
[7] = biological target: huN1-NRRHD Mutant 1465S/N (human) (UniProt P46531); assay: ELISA, relative to huN1-NRRHD
[8] = biological target: huN1-NRRHD chimeric antigen, HD-C Subdomain swap 3 (to Notch2 sequence) (human; human with Notch2 residues) (UniProt P46531); assay: ELISA on coated conditioned medium
[9] = biological target: huN1-NRRHD chimeric antigen, HD-C Subdomain swap 1 (to Notch2 sequence) (human; human with Notch2 residues) (UniProt P46531); assay: ELISA on coated conditioned medium
[10] = biological target: Notch1 chimeric antigen, Lin-A domain swapped with murine sequence (human; human with mouse Lin-A) (UniProt P46531); assay: ELISA on coated conditioned medium
[11] = biological target: huN1-NRRHD chimeric antigen, HD-C Subdomain swap 2 (to Notch2 sequence) (human; human with Notch2 residues) (UniProt P46531); assay: ELISA on coated conditioned medium
[12] = biological target: huN1-NRRHD chimeric antigen, HD-C Subdomain swap 5 (to Notch2 sequence) (human; human with Notch2 residues) (UniProt P46531); assay: ELISA on coated conditioned medium
[13] = biological target: huN1-NRRHD chimeric antigen, HD-C Subdomain swap 4 (to Notch2 sequence) (human; human with Notch2 residues) (UniProt P46531); assay: ELISA on coated conditioned medium

- Binding activity [1]: 6%
- Binding activity [2]: 112%
- Binding activity [3]: 11%
- Binding activity [4]: 4%
- Binding activity [5]: 85%
- Binding activity [6]: 1%
- Binding activity [7]: 8%
- ELISA reading (Binding activity) [8]: 2.81
- ELISA reading (Binding activity) [9]: 0.48
- ELISA reading [10]: 0.33
- ELISA reading (Binding activity) [11]: 2.76
- ELISA reading (Binding activity) [12]: 1.48
- ELISA reading (Binding activity) [13]: 2.89
B1: mouse monoclonal antibody N248A (antibody, IgG1, V domains shown)
VH: QVQLQQSGAELMKPGASVKISCKATGYTFSNYWMEWVKQRPGHGLEWIGEILPGRGRTNYNENFKGKATFTADTSSNTVYMQLNSLTSEDSAVYYCARFHSSAYYYTMDYWGQRTSVTVSS
VL: QAVVTQESALTTSPGETVTLTCRSSTGAVTTSNYANWVQEKPDHLFTGLIGGTNNRAPGIPARFSGSLIGDKAALTITGAQTEDEAIYFCALWYSNHWVFGGGTKLTVL
